The text below walks through data of patent US20260242478A1 (published 2026).

Where no end group is shown, it is not given here.

In assay [1] the target is Anti-CD28 Fab (SEQ ID NOs: 696, 697). In words: phage ELISA as above; wells pre-incubated with CD28 antigen as competitor. In general terms: An ELISA detects its analyte on a solid surface through an enzyme-linked reagent.
Target sequence in this assay (VH, as listed by the source, chain 1 of 2): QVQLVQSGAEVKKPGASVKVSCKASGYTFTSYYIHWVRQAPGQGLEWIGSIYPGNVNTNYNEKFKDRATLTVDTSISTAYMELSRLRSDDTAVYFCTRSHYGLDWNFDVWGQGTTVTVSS
Target sequence in this assay (VL, as listed by the source, chain 2 of 2): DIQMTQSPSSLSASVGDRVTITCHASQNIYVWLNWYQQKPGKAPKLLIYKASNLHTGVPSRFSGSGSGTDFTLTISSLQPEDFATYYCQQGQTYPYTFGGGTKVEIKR
Experimental: (§1) After panning, phage infected bacteria were plated out and colonies picked into 96 well blocks. Clonal phage was then amplified and separated from bacterial cells via centrifugation.
(§2) Clonal phage were harvested as crude supematants and screened via standard ELISAs. […] Prior to the addition of clonal phage, wells were incubated with blocking buffer and CD28 antigen or blocking buffer alone. Without washing or aspirating, clonal phage supematants were then added to the wells and incubated for a short time. Wells were then washed followed by detection of bound phage using a horse radish conjugated anti-M13 antibody. Clonal phage of interest were then sent for sequence analysis.
Assay [2] shares this target. In words: phage ELISA; biotinylated anti-CD28 Fab on neutravidin plate, clonal phage supernatant, anti-M13 HRP detection.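 Further: crude supernatants of single phage clones picked after panning were screened for binding.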
Target sequence in this assay (VH, as listed by the source, chain 1 of 2): as the sequence (VH, as listed by the source, chain 1 of 2) above
Target sequence in this assay (VL, as listed by the source, chain 2 of 2): as the sequence (VL, as listed by the source, chain 2 of 2) above
The target is the same in assay [3]. In words: phage binding ELISA, clonal phage on biotinylated anti-CD28 Fab captured on neutravidin plates.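 Further: crude clonal phage supernatants added to wells pretreated with CD28 antigen or blocking buffer only, bound phage detected by HRP-linked anti-M13 antibody.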
Target sequence in this assay (VH, as listed by the source, chain 1 of 2): as the sequence (VH, as listed by the source, chain 1 of 2) above
Target sequence in this assay (VL, as listed by the source, chain 2 of 2): as the sequence (VL, as listed by the source, chain 2 of 2) above
Experimental: as §1, §2
The target is the same in assay [4]. In words: phage binding ELISA on captured anti-CD28 Fab, wells pre-incubated with CD28 antigen as competitor.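 Further: crude clonal phage supernatants added to wells preloaded with CD28 antigen, bound phage read by HRP-conjugated anti-M13 antibody, control wells got blocking buffer alone without CD28.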
Target sequence in this assay (VH, as listed by the source, chain 1 of 2): as the sequence (VH, as listed by the source, chain 1 of 2) above
Target sequence in this assay (VL, as listed by the source, chain 2 of 2): as the sequence (VL, as listed by the source, chain 2 of 2) above
In assay [5] the target is T1, Anti-CD28 Fab (SEQ ID NOs: 696, 697).
T1 construct: In the phage ELISA the Fab was biotinylated and captured on neutravidin coated plates
Kind of assay: phage ELISA; biotinylated anti-CD28 Fab on neutravidin plate, clonal phage supernatant, anti-M13 HRP detection.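 Further: crude supernatants of single phage clones picked after panning were screened for binding.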
T1 sequence (VH, as listed by the source, chain 1 of 2): as the sequence (VH, as listed by the source, chain 1 of 2) above
T1 sequence (VL, as listed by the source, chain 2 of 2): as the sequence (VL, as listed by the source, chain 2 of 2) above

The target is the same in assay [6]. In words: phage ELISA; Fab-coated wells pre-incubated with CD28 antigen as competitor, clonal phage supernatant, anti-M13 HRP detection.
Target sequence in this assay (VH, as listed by the source, chain 1 of 2): as the sequence (VH, as listed by the source, chain 1 of 2) above
Target sequence in this assay (VL, as listed by the source, chain 2 of 2): as the sequence (VL, as listed by the source, chain 2 of 2) above
Experimental: as §1, §2

B1: Phage-1306 (peptide, not shown: large carriers)
peptide: YCDGHTPQFRAKCL
modifications: cysteine pairing not given here; also: fused to phage pIII protein, pIII and linker sequence not given here
notes: Tested as clonal phage supernatant
In the case of B1, the “Anti-CD28 Fab signal in the presence of CD28 (phage binding ELISA)” value in assay [1] came out at 0.07. The “Anti-CD28 Fab signal (phage binding ELISA)” value in assay [2] came out at 0.59.

B2: Phage-1307 (peptide, not shown: large carriers)
peptide: YCEGHLQEYMGKCL
modifications: cysteine pairing not given here; also: fused to phage pIII protein, pIII and linker sequence not given here
notes: as for B1
In the case of B2, the “Anti-CD28 Fab signal in the presence of CD28 (phage binding ELISA)” value in assay [1] came out at 0.25. In addition, the “Anti-CD28 Fab signal (phage binding ELISA)” value in assay [2] came to 0.58.

B3: Phage-1303 (peptide, not shown: large carriers)
peptide: YCAGHALEYMQKCM
modifications: cysteine pairing not given here; also: fused to phage pIII protein, pIII and linker sequence not given here
notes: as for B1
Turning to B3, the “Anti-CD28 Fab signal in the presence of CD28 (phage binding ELISA)” value in assay [1] amounted to 0.08. Besides, the “Anti-CD28 Fab signal (phage binding ELISA)” value in assay [2] came to 0.61.

B4: Phage-1323 (peptide)
peptide: YCAGHDAEYMQKCL
notes: Peptide-87 library clone, tested as clonal phage (peptide fused to pIII of the bacteriophage)
B4: the “Anti-CD28 Fab signal (phage binding ELISA)” value in assay [3] came to 0.46. The “Anti-CD28 Fab signal in the presence of CD28 (phage binding ELISA)” value in assay [4] came to 0.06.

B5: Phage-1320 (peptide)
peptide: YCAGHIPQYLNKCL
notes: as for B4
As to B5, the “Anti-CD28 Fab signal (phage binding ELISA)” value in assay [3] is 0.49. For the same molecule, the “Anti-CD28 Fab signal in the presence of CD28 (phage binding ELISA)” value in assay [4] came to 0.07.

B6: Phage-1296 (peptide)
peptide: YCDGHAWWYMEKCL
In the case of B6, in assay [5], the “Phage binding ELISA, Anti-CD28 Fab signal” value stood at 0.64. Besides, the “Phage binding ELISA, Anti-CD28 Fab signal in the presence of CD28” value in assay [6] was 0.06.

B7: Phage-1308 (peptide, not shown: large carriers)
peptide: YCDGHVTEYMAKCL
modifications: cysteine pairing not given here; also: fused to phage pIII protein, pIII and linker sequence not given here
notes: as for B1
In the case of B7, the “Anti-CD28 Fab signal in the presence of CD28 (phage binding ELISA)” value in assay [1] was 0.07. The “Anti-CD28 Fab signal (phage binding ELISA)” value in assay [2] came to 0.58.

B8: Phage-1318 (peptide)
peptide: YCEGHLGLYMKKCL
notes: as for B4
Consider B8, for which the “Anti-CD28 Fab signal (phage binding ELISA)” value in assay [3] is 0.49. Further, the “Anti-CD28 Fab signal in the presence of CD28 (phage binding ELISA)” value in assay [4] amounted to 0.06.

B9: Phage-1301 (peptide, not shown: large carriers)
peptide: YCEGHLAVHMSKCL
modifications: cysteine pairing not given here; also: fused to phage pIII protein, pIII and linker sequence not given here
notes: as for B1
As for B9, the “Anti-CD28 Fab signal in the presence of CD28 (phage binding ELISA)” value in assay [1] was 0.06. For the same molecule, the “Anti-CD28 Fab signal (phage binding ELISA)” value in assay [2] was 0.62.

B10: Phage-1302 (peptide, not shown: large carriers)
peptide: YCDGHIEMYMSKCM
modifications: cysteine pairing not given here; also: fused to phage pIII protein, pIII and linker sequence not given here
notes: as for B1
Regarding B10, the “Anti-CD28 Fab signal in the presence of CD28 (phage binding ELISA)” value in assay [1] worked out at 0.06. In assay [2], the “Anti-CD28 Fab signal (phage binding ELISA)” value was determined as 0.61.

B11: Phage-1293 (peptide)
peptide: YCEGHAAVYMHKCL
For B11, the “Phage binding ELISA, Anti-CD28 Fab signal” value in assay [5] stood at 0.67. For the same molecule, the “Phage binding ELISA, Anti-CD28 Fab signal in the presence of CD28” value in assay [6] was 0.09.

B12: Phage-1297 (peptide)
peptide: YCDGHAAWYLQKCL
In the case of B12, the “Phage binding ELISA, Anti-CD28 Fab signal” value in assay [5] stood at 0.64. Moreover, in assay [6], the “Phage binding ELISA, Anti-CD28 Fab signal in the presence of CD28” value stood at 0.07.

B13: Phage-1291 (peptide)
peptide: YCEGHLPQYLAKCY
In the case of B13, the “Phage binding ELISA, Anti-CD28 Fab signal” value in assay [5] amounted to 0.67. Besides, the “Phage binding ELISA, Anti-CD28 Fab signal in the presence of CD28” value in assay [6] turned out to be 0.08.

B14: Phage-1304 (peptide, not shown: large carriers)
peptide: YCEGHIGDYIAKCL
modifications: cysteine pairing not given here; also: fused to phage pIII protein, pIII and linker sequence not given here
notes: as for B1
Consider B14, for which the “Anti-CD28 Fab signal in the presence of CD28 (phage binding ELISA)” value in assay [1] was 0.36. The “Anti-CD28 Fab signal (phage binding ELISA)” value in assay [2] was 0.61.

B15: Phage-1317 (peptide)
peptide: YCDGHAAMYMSKCL
notes: as for B4
On to B15, for which, in assay [3], the “Anti-CD28 Fab signal (phage binding ELISA)” value is 0.5. Besides, in assay [4], the “Anti-CD28 Fab signal in the presence of CD28 (phage binding ELISA)” value was found to be 0.07.

B16: Phage-1298 (peptide)
peptide: YCEGHAQMYMLKCL
For B16, the “Phage binding ELISA, Anti-CD28 Fab signal” value in assay [5] was determined as 0.64. In addition, the “Phage binding ELISA, Anti-CD28 Fab signal in the presence of CD28” value in assay [6] is 0.06.

B17: Phage-1321 (peptide)
peptide: YCDGHSTEYMWKCL
notes: as for B4
As for B17, the “Anti-CD28 Fab signal (phage binding ELISA)” value in assay [3] came to 0.49. Besides, the “Anti-CD28 Fab signal in the presence of CD28 (phage binding ELISA)” value in assay [4] came out at 0.06.

B18: Phage-1314 (peptide)
peptide: YCEGHLDEYLQKCM
notes: as for B4
With B18, the “Anti-CD28 Fab signal (phage binding ELISA)” value in assay [3] stood at 0.51. In assay [4], the “Anti-CD28 Fab signal in the presence of CD28 (phage binding ELISA)” value came to 0.08.

B19: Phage-1295 (peptide)
peptide: YCMGHSAEYMGKCL
In the case of B19, the “Phage binding ELISA, Anti-CD28 Fab signal” value in assay [5] was 0.64. Moreover, the “Phage binding ELISA, Anti-CD28 Fab signal in the presence of CD28” value in assay [6] came out at 0.06.

B20: Phage-1300 (peptide, not shown: large carriers)
peptide: YCSGHLPMYMAKCL
modifications: cysteine pairing not given here; also: fused to phage pIII protein, pIII and linker sequence not given here
notes: as for B1
With B20, the “Anti-CD28 Fab signal in the presence of CD28 (phage binding ELISA)” value in assay [1] came to 0.13. Besides, in assay [2], the “Anti-CD28 Fab signal (phage binding ELISA)” value was 0.62.

B21: Phage-1315 (peptide)
peptide: YCAGHTTEYIVKCL
notes: as for B4
As for B21, in assay [3], the “Anti-CD28 Fab signal (phage binding ELISA)” value was 0.5. For the same molecule, the “Anti-CD28 Fab signal in the presence of CD28 (phage binding ELISA)” value in assay [4] worked out at 0.05.

B22: Phage-1322 (peptide)
peptide: YCEGHIKDYMTKCL
notes: as for B4
Consider B22, for which, in assay [3], the “Anti-CD28 Fab signal (phage binding ELISA)” value is 0.47. For the same molecule, in assay [4], the “Anti-CD28 Fab signal in the presence of CD28 (phage binding ELISA)” value was 0.08.

B23: Phage-1311 (peptide, not shown: large carriers)
peptide: YCEGHVELYRQKCL
modifications: cysteine pairing not given here; also: fused to phage pIII protein, pIII and linker sequence not given here
notes: as for B1
Take B23: the “Anti-CD28 Fab signal in the presence of CD28 (phage binding ELISA)” value in assay [1] was found to be 0.06. Also, in assay [2], the “Anti-CD28 Fab signal (phage binding ELISA)” value was 0.56.

B24: Phage-1292 (peptide)
peptide: YCDGHYGAYILKCL
With B24, in assay [5], the “Phage binding ELISA, Anti-CD28 Fab signal” value stood at 0.67. Moreover, the “Phage binding ELISA, Anti-CD28 Fab signal in the presence of CD28” value in assay [6] came out at 0.06.

B25: Phage-1299 (peptide)
peptide: YCEGHSRQYMEKCM
As for B25, in assay [5], the “Phage binding ELISA, Anti-CD28 Fab signal” value was 0.63. The “Phage binding ELISA, Anti-CD28 Fab signal in the presence of CD28” value in assay [6] worked out at 0.33.

B26: Phage-1305 (peptide, not shown: large carriers)
peptide: YCQGHSELYMSKCL
modifications: cysteine pairing not given here; also: fused to phage pIII protein, pIII and linker sequence not given here
notes: as for B1
As to B26, the “Anti-CD28 Fab signal in the presence of CD28 (phage binding ELISA)” value in assay [1] worked out at 0.08. Moreover, the “Anti-CD28 Fab signal (phage binding ELISA)” value in assay [2] amounted to 0.6.

B27: Phage-1312 (peptide, not shown: large carriers)
peptide: YCDGHLETYMQKCL
modifications: cysteine pairing not given here; also: fused to phage pIII protein, pIII and linker sequence not given here
notes: as for B1
As for B27, in assay [1], the “Anti-CD28 Fab signal in the presence of CD28 (phage binding ELISA)” value was 0.08. Also, the “Anti-CD28 Fab signal (phage binding ELISA)” value in assay [2] stood at 0.53.

B28: Phage-1316 (peptide)
peptide: YCEGHVPQYMGKCL
notes: as for B4
On to B28, for which the “Anti-CD28 Fab signal (phage binding ELISA)” value in assay [3] was found to be 0.5. In addition, the “Anti-CD28 Fab signal in the presence of CD28 (phage binding ELISA)” value in assay [4] turned out to be 0.08.

B29: Phage-1294 (peptide)
peptide: YCDGHMDAYMSKCL
In the case of B29, the “Phage binding ELISA, Anti-CD28 Fab signal” value in assay [5] was found to be 0.65. Moreover, in assay [6], the “Phage binding ELISA, Anti-CD28 Fab signal in the presence of CD28” value was 0.06.

B30: Phage-1309 (peptide, not shown: large carriers)
peptide: YCDGHIMPYLDKCL
modifications: cysteine pairing not given here; also: fused to phage pIII protein, pIII and linker sequence not given here
notes: as for B1
In the case of B30, in assay [1], the “Anti-CD28 Fab signal in the presence of CD28 (phage binding ELISA)” value came to 0.05. Moreover, the “Anti-CD28 Fab signal (phage binding ELISA)” value in assay [2] turned out to be 0.57.

B31: Phage-1310 (peptide, not shown: large carriers)
peptide: YCEGHKKEYMLKCL
modifications: cysteine pairing not given here; also: fused to phage pIII protein, pIII and linker sequence not given here
notes: as for B1
On to B31, for which the “Anti-CD28 Fab signal in the presence of CD28 (phage binding ELISA)” value in assay [1] worked out at 0.08. Also, the “Anti-CD28 Fab signal (phage binding ELISA)” value in assay [2] is 0.56.

B32: Phage-1319 (peptide)
peptide: YCAGHAQEYMRKCL
notes: as for B4
On to B32, for which the “Anti-CD28 Fab signal (phage binding ELISA)” value in assay [3] was determined as 0.49. Moreover, the “Anti-CD28 Fab signal in the presence of CD28 (phage binding ELISA)” value in assay [4] stood at 0.07.
